The source of these data is patent US20090149389A1 (PURDUE RESEARCH FOUNDATION, published 2009).

Some targets named below: AMPK (r) (rat (r), UniProt Q09137 1-552, limits assumed); IGF-IR (h) (human (h), UniProt P08069 959-1367, limits assumed); CK2 (h) (human (h), UniProt P68400 1-391); Src(1-530) (h) (human (h), UniProt P12931 1-530); EGFR (h) (human (h), UniProt P00533 696-1210, limits assumed); PKB β (h) (human (h), UniProt P31751 1-481, limits assumed); MLCK (h) (human (h)); L1MK1 (h) (human (h), UniProt P53667 285-638, limits assumed); Pim-1 (h) (human (h), UniProt P11309 1-313); Abl (h) (human (h), UniProt P00519 27-1130, limits assumed); MAPKI (h) (human (h), UniProt P28482 1-360, limits assumed); Met (h) (human (h), UniProt P08581 974-1390, limits assumed); MSK2 (h) (human (h), UniProt O75676 1-772, limits assumed); MEKI (h) (human (h), UniProt Q02750 1-393); MSK1 (h) (human (h), UniProt O75582 1-802); CDKI/cyclinB (h) (human (h), UniProt P06493 1-297); GSK3β (h) (human (h), UniProt P49841 1-420).

Test in all cases: cell-based or functional assay
In a further experiment the target is T1, DYRK2 (h) (human (h), UniProt Q92630 1-601, limits assumed).
T1 sequence (looked up): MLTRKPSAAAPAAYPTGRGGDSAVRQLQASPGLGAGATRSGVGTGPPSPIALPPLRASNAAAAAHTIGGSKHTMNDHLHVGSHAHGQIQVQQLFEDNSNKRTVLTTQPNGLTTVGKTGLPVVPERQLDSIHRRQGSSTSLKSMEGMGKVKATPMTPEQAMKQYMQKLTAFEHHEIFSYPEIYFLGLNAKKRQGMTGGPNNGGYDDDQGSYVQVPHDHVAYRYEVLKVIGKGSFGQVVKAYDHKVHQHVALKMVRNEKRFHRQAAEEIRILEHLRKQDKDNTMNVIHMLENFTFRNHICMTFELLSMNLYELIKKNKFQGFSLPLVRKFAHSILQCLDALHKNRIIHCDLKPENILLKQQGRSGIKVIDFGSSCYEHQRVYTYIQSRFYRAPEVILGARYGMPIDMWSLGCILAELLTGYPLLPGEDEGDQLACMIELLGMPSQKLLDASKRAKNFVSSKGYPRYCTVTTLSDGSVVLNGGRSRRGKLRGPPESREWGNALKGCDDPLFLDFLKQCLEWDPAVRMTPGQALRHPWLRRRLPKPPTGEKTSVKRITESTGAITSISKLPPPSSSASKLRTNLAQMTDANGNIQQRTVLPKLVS

A further experiment concerns the target T2, PRAK (UniProt Q8IW41 1-473, limits assumed).
T2 sequence (looked up): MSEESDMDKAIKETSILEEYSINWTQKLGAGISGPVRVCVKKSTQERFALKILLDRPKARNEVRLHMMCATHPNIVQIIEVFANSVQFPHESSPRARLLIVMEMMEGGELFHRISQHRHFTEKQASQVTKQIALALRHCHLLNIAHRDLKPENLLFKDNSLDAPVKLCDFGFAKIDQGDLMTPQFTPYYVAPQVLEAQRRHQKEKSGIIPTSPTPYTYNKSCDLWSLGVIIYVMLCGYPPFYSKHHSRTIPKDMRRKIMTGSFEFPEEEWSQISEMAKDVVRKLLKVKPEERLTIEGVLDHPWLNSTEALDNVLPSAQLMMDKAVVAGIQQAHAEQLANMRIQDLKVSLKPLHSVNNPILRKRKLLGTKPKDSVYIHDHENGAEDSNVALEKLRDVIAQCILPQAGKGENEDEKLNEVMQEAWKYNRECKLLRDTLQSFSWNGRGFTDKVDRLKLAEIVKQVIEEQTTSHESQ

The next experiment concerns the target T3, PhKγ2 (h) (human (h), UniProt P15735 1-406).
T3 sequence (looked up): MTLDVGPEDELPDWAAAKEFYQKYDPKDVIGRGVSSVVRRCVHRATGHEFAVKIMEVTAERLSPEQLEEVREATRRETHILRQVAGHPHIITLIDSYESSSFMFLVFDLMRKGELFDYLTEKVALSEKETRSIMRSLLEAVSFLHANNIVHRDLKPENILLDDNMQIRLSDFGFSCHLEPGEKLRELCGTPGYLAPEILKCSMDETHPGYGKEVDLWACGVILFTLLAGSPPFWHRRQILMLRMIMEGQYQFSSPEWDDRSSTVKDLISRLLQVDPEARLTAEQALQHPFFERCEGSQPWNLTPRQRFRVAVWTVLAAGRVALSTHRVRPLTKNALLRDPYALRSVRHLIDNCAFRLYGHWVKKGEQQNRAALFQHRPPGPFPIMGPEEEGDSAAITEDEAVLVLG

Chain of CK2 (h) (P68400 whole entry): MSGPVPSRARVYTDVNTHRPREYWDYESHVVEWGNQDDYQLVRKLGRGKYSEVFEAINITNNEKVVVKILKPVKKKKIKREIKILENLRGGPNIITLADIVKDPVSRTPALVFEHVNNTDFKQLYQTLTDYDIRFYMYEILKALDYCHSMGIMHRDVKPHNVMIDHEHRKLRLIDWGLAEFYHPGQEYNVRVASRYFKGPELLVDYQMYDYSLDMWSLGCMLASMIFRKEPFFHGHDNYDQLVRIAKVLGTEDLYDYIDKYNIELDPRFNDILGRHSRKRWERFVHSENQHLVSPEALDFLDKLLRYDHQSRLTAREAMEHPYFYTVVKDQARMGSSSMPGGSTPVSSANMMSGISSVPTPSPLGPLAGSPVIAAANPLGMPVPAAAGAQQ
Chain of MSK1 (h) (O75582 whole entry): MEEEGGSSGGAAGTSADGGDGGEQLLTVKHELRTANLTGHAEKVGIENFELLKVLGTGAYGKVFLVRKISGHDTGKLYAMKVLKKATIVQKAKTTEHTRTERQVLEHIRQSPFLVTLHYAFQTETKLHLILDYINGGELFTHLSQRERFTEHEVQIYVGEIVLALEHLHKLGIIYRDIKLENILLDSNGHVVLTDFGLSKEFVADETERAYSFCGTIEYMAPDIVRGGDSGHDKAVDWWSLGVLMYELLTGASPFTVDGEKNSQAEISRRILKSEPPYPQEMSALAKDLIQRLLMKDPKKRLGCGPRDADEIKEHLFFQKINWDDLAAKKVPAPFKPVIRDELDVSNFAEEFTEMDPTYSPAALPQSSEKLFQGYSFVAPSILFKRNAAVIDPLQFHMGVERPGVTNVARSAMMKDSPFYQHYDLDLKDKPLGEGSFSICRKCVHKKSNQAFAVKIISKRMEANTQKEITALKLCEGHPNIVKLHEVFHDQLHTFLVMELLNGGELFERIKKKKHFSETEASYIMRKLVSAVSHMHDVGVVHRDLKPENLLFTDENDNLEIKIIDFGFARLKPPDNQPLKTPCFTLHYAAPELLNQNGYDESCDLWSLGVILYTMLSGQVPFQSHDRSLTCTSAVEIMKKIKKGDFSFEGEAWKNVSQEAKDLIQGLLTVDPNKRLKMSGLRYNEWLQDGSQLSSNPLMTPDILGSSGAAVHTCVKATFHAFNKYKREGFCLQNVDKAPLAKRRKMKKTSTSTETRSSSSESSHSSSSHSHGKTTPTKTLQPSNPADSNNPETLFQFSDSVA
Chain of MAPKI (h) (P28482 whole entry): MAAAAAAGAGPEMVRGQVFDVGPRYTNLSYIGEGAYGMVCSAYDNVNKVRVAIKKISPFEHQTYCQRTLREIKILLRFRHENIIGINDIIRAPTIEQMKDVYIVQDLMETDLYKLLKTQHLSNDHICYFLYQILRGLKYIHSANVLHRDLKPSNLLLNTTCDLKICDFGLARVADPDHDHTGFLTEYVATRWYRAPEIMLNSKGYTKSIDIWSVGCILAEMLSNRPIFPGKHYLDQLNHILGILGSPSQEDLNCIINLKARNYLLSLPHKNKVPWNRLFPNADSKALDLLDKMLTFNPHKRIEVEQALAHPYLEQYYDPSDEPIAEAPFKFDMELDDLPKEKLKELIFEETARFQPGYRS
Chain of L1MK1 (h) (P53667 285-638 limits assumed): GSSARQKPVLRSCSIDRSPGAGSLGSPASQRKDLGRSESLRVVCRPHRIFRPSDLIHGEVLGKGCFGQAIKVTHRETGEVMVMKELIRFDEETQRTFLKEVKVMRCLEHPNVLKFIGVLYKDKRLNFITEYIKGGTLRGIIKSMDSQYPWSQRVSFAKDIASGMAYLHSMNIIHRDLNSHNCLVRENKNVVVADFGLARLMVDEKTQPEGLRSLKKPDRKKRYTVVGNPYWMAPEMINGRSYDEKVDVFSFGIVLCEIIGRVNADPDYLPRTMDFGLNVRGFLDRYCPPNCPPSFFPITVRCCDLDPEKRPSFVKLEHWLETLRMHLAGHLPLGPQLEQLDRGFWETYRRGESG
Chain of CDKI/cyclinB (h) (P06493 whole entry): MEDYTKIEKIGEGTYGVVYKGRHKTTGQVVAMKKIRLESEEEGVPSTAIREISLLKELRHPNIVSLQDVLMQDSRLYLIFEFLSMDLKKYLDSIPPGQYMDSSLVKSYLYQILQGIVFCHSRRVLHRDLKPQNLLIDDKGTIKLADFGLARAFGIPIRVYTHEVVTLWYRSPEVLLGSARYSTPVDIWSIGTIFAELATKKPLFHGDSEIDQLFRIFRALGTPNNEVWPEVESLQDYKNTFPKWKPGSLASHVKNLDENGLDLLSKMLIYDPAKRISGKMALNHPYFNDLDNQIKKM
Chain of MSK2 (h) (O75676 whole entry): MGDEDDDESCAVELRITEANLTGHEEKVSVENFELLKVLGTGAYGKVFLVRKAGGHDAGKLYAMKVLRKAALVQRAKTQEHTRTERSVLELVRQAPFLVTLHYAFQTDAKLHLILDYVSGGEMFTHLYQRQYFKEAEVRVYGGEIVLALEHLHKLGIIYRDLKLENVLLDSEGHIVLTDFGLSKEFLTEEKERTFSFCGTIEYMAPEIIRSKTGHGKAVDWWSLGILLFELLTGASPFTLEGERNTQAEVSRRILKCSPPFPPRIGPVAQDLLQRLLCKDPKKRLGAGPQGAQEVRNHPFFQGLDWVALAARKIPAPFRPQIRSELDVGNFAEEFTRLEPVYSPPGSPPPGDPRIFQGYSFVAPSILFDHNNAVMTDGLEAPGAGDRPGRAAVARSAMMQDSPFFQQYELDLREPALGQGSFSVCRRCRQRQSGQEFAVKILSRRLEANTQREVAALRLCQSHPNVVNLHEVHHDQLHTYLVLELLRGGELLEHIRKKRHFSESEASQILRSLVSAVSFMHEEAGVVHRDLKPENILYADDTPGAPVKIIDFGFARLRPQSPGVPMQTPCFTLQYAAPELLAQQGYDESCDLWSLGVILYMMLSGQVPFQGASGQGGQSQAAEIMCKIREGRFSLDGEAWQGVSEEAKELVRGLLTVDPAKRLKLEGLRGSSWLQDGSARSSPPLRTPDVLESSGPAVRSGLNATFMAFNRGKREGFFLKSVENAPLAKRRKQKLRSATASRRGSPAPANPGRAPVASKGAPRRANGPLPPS
Chain of IGF-IR (h) (P08069 959-1367 limits assumed): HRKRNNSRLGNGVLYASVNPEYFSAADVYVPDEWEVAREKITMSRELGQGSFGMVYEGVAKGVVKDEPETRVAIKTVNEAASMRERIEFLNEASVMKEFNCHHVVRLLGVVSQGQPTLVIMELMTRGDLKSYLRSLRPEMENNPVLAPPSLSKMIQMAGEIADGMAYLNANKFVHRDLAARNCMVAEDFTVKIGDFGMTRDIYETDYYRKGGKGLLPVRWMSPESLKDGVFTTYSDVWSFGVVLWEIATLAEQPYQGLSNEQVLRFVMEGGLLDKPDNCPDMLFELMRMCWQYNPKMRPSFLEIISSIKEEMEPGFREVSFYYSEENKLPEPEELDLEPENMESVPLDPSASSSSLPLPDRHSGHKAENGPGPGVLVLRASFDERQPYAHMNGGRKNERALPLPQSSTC
Chain of Abl (h) (P00519 27-1130 limits assumed): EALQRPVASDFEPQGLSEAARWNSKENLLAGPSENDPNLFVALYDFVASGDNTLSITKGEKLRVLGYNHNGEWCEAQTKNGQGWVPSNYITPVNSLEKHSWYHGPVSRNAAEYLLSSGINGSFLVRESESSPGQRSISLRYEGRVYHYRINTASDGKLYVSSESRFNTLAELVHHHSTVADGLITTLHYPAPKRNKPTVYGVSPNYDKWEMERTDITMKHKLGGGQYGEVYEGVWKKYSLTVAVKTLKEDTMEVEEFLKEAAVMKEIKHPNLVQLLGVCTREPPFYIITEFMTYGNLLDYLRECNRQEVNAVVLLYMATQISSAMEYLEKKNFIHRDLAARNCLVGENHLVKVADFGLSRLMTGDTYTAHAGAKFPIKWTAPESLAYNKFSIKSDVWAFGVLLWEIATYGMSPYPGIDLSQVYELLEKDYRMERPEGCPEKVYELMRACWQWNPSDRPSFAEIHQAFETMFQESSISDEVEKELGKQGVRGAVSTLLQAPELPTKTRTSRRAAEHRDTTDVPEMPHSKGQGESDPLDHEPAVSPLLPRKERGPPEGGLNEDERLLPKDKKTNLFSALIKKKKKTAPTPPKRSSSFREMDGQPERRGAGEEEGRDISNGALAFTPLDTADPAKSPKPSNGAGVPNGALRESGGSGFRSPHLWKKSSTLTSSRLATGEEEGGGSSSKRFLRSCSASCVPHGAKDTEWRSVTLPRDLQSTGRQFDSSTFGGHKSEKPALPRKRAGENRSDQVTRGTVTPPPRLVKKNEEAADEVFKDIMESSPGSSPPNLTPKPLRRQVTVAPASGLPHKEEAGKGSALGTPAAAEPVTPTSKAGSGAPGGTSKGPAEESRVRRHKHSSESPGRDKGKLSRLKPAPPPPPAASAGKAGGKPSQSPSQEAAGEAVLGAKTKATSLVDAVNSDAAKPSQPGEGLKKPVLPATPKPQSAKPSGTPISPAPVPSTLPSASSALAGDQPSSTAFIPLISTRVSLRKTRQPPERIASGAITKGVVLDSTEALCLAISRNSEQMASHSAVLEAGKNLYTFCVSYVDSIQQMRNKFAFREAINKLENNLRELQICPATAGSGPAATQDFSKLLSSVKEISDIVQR
Chain of PKB β (h) (P31751 whole entry): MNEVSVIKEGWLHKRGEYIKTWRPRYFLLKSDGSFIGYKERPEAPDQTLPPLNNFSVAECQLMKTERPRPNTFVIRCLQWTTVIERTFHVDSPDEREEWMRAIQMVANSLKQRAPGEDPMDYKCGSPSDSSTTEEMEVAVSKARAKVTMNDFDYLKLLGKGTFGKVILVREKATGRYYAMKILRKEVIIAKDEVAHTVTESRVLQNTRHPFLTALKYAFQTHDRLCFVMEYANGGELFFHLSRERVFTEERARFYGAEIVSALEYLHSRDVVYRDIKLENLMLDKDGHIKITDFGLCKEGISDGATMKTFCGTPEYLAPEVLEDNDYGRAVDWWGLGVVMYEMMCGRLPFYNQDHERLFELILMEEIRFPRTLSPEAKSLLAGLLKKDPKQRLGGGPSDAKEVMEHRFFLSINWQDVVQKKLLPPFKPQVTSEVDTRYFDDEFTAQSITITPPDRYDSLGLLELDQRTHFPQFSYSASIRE

B1: FAKLAARLYRKALARQLGVAA (peptide)
peptide: FAKLAARLYRKALARQLGVAA
With B1, the “Profile-1 @ = 100 µm (kinase profiler assay)” value (shortened to “Profile-1 @ = 100 µm”) with AMPK (r) was 101; in the experiment with IGF-IR (h), 69; with DYRK2 (h), -11; with CK2 (h), 80; with Src(1-530) (h), 5; in the experiment with EGFR (h) it was 18. Also, the “Profile-1 @ = 100 µm” value was 16 with PKB β (h); 1 in the experiment with MLCK (h); 92 with L1MK1 (h); 131 with PRAK; 1 with Pim-1 (h); 41 with Abl (h). Besides, the “Profile-1 @ = 100 µm” value with MAPKI (h) came out at 104; with Met (h), 17; with MSK2 (h), 24; with MEKI (h), 68; in the experiment with MSK1 (h), 11; with CDKI/cyclinB (h), 36. The “Profile-1 @ = 100 µm” value was determined as 188 in the experiment with GSK3β (h) and 20 with PhKγ2 (h).
